Results as given in paper doi:10.1101/2023.03.06.531428 (bioRxiv, 2023).

B1: ADAMTS-7-FLAG (enzyme)
chain: APGPAPGRATEGRAALDIVHPVRVDAGGSFLSYELWPRALRKRDVSVRRDAPAFYELQYRGRELRFNLTANQHLLAPGFVSETRRRGGLGRAHIRAHTPACHLLGEVQDPELEGGLAAISACDGLKGVFQLSNEDYFIEPLDSAPARPGHAQPHVVYKRQAPERLAQRGDSSAPSTCGVQVYPELESRRERWEQRQQWRRPRLRRLHQRSVSKEKWVETLVVADAKMVEYHGQPQVESYVLTIMNMVAGLFHDPSIGNPIHITIVRLVLLEDEEEDLKITHHADNTLKSFCKWQKSINMKGDAHPLHHDTAILLTRKDLCAAMNRPCETLGLSHVAGMCQPHRSCSINEDTGLPLAFTVAHELGHSFGIQHDGSGNDCEPVGKRPFIMSPQLLYDAAPLTWSRCSRQYITRFLDRGWGLCLDDPPAKDIIDFPSVPPGVLYDVSHQCRLQYGAYSAFCEDMDNVCHTLWCSVGTTCHSKLDAAVDGTRCGENKWCLSGECVPVGFRPEAVDGGWSGWSAWSICSRSCGMGVQSAERQCTQPTPKYKGRYCVGERKRFRLCNLQACPAGRPSFRHVQCSHFDAMLYKGQLHTWVPVVNDVNPCELHCRPANEYFAEKLRDAVVDGTPCYQVRASRDLCINGICKNVGCDFEIDSGAMEDRCGVCHGNGSTCHTVSGTFEEAEGLGYVDVGLIPAGAREIRIQEVAEAANFLALRSEDPEKYFLNGGWTIQWNGDYQVAGTTFTYARRGNWENLTSPGPTKEPVWIQLLFQESNPGVHYEYTIHREAGGHDEVPPPVFSWHYGPWTKCTVTCGRGVQRQNVYCLERQAGPVDEEHCDPLGRPDDQQRKCSEQPCPARWWAGEWQLCSSSCGPGGLSRRAVLCIRSVGLDEQSALEPPACEHLPRPPTETPCNRHVPCPATWAVGNWSQCSVTCGEGTQRRNVLCTNDTGVPCDEAQQPASEVTCSLPLCRWPLGTLGPEGSGSGSSSHELFNEADFIPHHLAPRPSPASSPKPGTMGNAIEEEAPELDLPGPVFVDDFYYDYNFINFHEDLSYGPSEEPDLDLAGTGDRTPPPHSHPAAPSTGSPVPATEPPAAKEEGVLGPWSPSPWPSQAGRSPPPPSEQTPGNPLINFLPEEDTPIGAPDLGLPSLSWPRVSTDGLQTPATPESQNDFPVGKDSQSQLPPPWRDRTNEVFKDDEEPKGRGAPHLPPRPSSTLPPLSPVGSTHSSPSPDVAELWTGGTVAWEPALEGGLGPVDSELWPTVGVASLLPPPIAPLPEMKVRDSSLEPGTPSFPTPGPGSWDLQTVAVWGTFLPTTLTGLGHMPEPALNPGPKGQPESLSPEVPLSSRLLSTPAWDSPANSHRVPETQPLAPSLAEAGPPADPLVVRNAGWQAGNWSECSTTCGLGAVWRPVRCSSGRDEDCAPAGRPQPARRCHLRPCATWHSGNWSKCSRSCGGGSSVRDVQCVDTRDLRPLRPFHCQPGPAKPPAHRPCGAQPCLSWYTSSWRECSEACGGGEQQRLVTCPEPGLCEEALRPNTTRPCNTHPCTQWVVGPWGQCSGPCGGGVQRRLVKCVNTQTGLPEEDSDQCGHEAWPESSRPCGTEDCEPVEPPRCERDRLSFGFCETLRLLGRCQLPTIRTQCCRSCSPPSHGAPSRGHQRVARR
B2: untagged, recombinant TIMP-1 (natural protein)
chain: not shown

What was measured:
Test in all cases: AlphaScreen or HTRF
TIMP-1-HA [1] = biological target: T1, TIMP-1-HA (human, UniProt P01033 24-207)
TIMP-1-HA [2] = biological target: T1, TIMP-1-HA; remark: listed apart in the source
ADAMTS-7-FLAG = biological target: B1

T1 sequence (P01033 24-207): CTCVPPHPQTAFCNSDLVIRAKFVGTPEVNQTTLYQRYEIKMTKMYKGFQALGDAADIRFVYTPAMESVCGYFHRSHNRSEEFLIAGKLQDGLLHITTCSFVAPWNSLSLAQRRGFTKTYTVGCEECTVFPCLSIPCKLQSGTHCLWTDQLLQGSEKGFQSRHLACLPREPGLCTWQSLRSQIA

Row | Binder | FRET ratio (665/620) with 0 ng untagged TIMP-1 (TIMP-1-HA [1]) | FRET ratio (665/620) (TIMP-1-HA [2]) | FRET ratio (665/620) of ADAMTS-7-FLAG and TIMP-1-HA with 400 ng untagged TIMP-1 (ADAMTS-7-FLAG) | FRET ratio (665/620) of ADAMTS-7-FLAG and TIMP-1-HA with 800 ng untagged TIMP-1 (ADAMTS-7-FLAG)
1 | B1 | 4950 665/620 ratio | 5480 665/620 ratio |  | 
2 | B2 |  |  | 4420 665/620 ratio | 3570 665/620 ratio
